The values below come from article PMC11879619.

Where no end group is shown, it is not given here.

Assay [1] concerns the target He-PDFR-A, long splice variant of the pigment-dispersing factor receptor of Hypsibius exemplaris (Hypsibius exemplaris).
For assay [2], the target named is He-PDFR-B, short splice variant of the pigment-dispersing factor receptor of Hypsibius exemplaris (Hypsibius exemplaris).

B1: He-PDF-3, pigment-dispersing factor 3 of Hypsibius exemplaris (synthetic mature peptide) (peptide)
peptide: NSEILNTLIGLPNKLKQR-NH2
With B1, in assay [1], the EC50 of the cAMP response (BRET ratio change of the Epac-L sensor) of HEK293T cells transfected with He-pdfr-A, synthetic peptide at 10^-11 to 10^-5 M worked out at 18 nM. The EC50 of the cAMP response (BRET ratio change of the Epac-L sensor) of HEK293T cells transfected with He-pdfr-B, synthetic peptide at 10^-11 to 10^-5 M in assay [2] came out at 1.6 nM.

B2: He-PDF-1, pigment-dispersing factor 1 of Hypsibius exemplaris (synthetic mature peptide) (peptide)
peptide: NAEVLNSLIGLPRLLKDK-NH2
For the molecule B2, in assay [1], the EC50 of the cAMP response (BRET ratio change of the Epac-L sensor) of HEK293T cells transfected with He-pdfr-A, synthetic peptide at 10^-11 to 10^-5 M was 56 nM. Further, the EC50 of the cAMP response (BRET ratio change of the Epac-L sensor) of HEK293T cells transfected with He-pdfr-B, synthetic peptide at 10^-11 to 10^-5 M in assay [2] came to 21 nM.

B3: He-PDF-2, pigment-dispersing factor 2 of Hypsibius exemplaris (synthetic mature peptide) (peptide)
peptide: NSEILNTIIGLPNKLRQR-NH2
As for B3, the EC50 of the cAMP response (BRET ratio change of the Epac-L sensor) of HEK293T cells transfected with He-pdfr-A, synthetic peptide at 10^-11 to 10^-5 M in assay [1] is 34 nM. The EC50 of the cAMP response (BRET ratio change of the Epac-L sensor) of HEK293T cells transfected with He-pdfr-B, synthetic peptide at 10^-11 to 10^-5 M in assay [2] is 11 nM.
